Data as given in patent US20150344570A1 (published 2015).

B1: GpH7-B3 variant A330_19Q/GpL16-k0 (antibody, human IgG1, kappa)
heavy: not shown
light: DIVMTQSPLSLPVTPGEPASISCQASESLVHSNRNTYLHWYLQKPGQSPQLLIYKVSNRFSGVPDRFSGSGSGTDFTLKISRVEAEDVGVYYCSQNTHVPPTFGQGTKVEIERTVAAPSVFIFPPSDEQLKSGTASVVCLLNNFYPREAKVQWKVDNALQSGNSQESVTEQDSKDSTYSLSSTLTLSKADYEKHKVYACEVTHQGLSSPVTKSFNRGEC
notes: homodimerized IgG1, mutation in both H chains; also called Ho Ab
B2: GpH7-B3 variant A330_20W/GpL16-k0 (antibody, human IgG1, kappa)
heavy: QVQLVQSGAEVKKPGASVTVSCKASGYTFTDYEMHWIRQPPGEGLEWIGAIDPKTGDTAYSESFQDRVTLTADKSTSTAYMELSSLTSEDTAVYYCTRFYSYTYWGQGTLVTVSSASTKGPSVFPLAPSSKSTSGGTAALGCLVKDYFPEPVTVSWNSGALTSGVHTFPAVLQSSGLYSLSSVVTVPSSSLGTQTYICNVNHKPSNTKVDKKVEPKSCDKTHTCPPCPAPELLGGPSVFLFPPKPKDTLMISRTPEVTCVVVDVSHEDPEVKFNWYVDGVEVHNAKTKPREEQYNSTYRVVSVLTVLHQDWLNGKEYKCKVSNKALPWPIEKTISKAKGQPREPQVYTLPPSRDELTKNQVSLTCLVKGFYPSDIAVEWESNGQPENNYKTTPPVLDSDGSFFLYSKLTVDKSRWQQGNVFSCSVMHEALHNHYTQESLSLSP
light: B1 light
notes: as for B1
B3: GpH7-B3 variant D265_10E/GpL16-k0 (antibody, human IgG1, kappa)
heavy: not shown
light: B1 light
notes: as for B1
B4: GpH7-B3 variant H268_01G/GpL16-k0 (antibody, human IgG1, kappa)
heavy: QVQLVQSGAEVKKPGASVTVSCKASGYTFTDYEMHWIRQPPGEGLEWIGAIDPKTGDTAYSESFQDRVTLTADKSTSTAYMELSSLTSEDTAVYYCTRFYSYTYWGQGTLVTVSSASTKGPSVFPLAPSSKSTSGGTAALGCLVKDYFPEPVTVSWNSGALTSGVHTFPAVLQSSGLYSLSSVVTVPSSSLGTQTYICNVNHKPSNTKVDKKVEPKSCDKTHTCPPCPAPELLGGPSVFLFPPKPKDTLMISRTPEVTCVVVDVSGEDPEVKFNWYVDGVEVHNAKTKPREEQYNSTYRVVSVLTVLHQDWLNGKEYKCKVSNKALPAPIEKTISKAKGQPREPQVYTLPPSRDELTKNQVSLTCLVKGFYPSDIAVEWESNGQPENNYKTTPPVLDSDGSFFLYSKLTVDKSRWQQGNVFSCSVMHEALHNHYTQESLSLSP
light: B1 light
notes: as for B1
B5: GpH7-B3 variant H268_09D/GpL16-k0 (antibody, human IgG1, kappa)
heavy: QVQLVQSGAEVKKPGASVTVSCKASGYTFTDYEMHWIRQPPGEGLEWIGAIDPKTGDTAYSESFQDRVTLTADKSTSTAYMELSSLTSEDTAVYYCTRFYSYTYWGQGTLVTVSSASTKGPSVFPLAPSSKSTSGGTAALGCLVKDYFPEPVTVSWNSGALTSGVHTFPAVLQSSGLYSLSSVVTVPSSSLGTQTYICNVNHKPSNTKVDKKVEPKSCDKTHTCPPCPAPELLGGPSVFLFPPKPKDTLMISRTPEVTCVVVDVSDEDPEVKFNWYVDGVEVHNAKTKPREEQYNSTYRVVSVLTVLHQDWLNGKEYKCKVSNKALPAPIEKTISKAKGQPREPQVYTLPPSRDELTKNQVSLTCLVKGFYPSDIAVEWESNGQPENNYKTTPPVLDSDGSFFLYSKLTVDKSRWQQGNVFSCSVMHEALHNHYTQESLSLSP
light: B1 light
notes: as for B1
B6: GpH7-B3 variant H268_10E/GpL16-k0 (antibody, human IgG1, kappa)
heavy: not shown
light: B1 light
notes: as for B1
B7: GpH7-B3 variant H268_13S/GpL16-k0 (antibody, human IgG1, kappa)
heavy: not shown
light: B1 light
notes: as for B1
B8: GpH7-B3 variant H268_18N/GpL16-k0 (antibody, human IgG1, kappa)
heavy: not shown
light: B1 light
notes: as for B1
B9: GpH7-B3 variant I336_08L/GpL16-k0 (antibody, human IgG1, kappa)
heavy: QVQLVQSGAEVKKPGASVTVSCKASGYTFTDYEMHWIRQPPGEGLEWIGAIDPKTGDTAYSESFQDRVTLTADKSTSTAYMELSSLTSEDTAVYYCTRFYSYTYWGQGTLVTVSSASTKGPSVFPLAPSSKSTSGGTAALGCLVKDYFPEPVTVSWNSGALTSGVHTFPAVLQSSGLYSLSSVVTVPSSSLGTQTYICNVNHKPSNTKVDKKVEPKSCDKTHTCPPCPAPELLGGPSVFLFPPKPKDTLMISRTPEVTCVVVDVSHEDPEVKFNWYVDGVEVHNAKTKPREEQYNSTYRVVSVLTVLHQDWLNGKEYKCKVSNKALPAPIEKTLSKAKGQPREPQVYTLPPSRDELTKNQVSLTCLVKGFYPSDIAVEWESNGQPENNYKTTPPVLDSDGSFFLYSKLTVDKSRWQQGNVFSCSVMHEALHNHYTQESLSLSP
light: B1 light
notes: as for B1
B10: GpH7-B3 variant I336_09D/GpL16-k0 (antibody, human IgG1, kappa)
heavy: not shown
light: B1 light
notes: as for B1
B11: GpH7-B3 variant I336_11K/GpL16-k0 (antibody, human IgG1, kappa)
heavy: not shown
light: B1 light
notes: as for B1
B12: GpH7-B3 variant I336_12R/GpL16-k0 (antibody, human IgG1, kappa)
heavy: not shown
light: B1 light
notes: as for B1
B13: GpH7-B3 variant I336_13S/GpL16-k0 (antibody, human IgG1, kappa)
heavy: not shown
light: B1 light
notes: as for B1
B14: GpH7-B3 variant I336_14T/GpL16-k0 (antibody, human IgG1, kappa)
heavy: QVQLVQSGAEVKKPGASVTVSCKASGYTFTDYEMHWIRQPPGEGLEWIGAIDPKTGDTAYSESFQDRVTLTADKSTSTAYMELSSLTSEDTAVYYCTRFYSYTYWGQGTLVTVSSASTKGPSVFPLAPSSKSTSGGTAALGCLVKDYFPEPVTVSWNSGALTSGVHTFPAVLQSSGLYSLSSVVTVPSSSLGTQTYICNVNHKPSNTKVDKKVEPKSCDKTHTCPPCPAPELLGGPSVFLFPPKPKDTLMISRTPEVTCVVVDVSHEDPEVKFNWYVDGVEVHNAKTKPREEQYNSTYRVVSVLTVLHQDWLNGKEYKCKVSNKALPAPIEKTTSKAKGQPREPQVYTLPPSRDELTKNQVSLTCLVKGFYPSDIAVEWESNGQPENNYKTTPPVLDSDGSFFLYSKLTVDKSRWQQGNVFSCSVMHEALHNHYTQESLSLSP
light: B1 light
notes: as for B1
B15: GpH7-B3 variant S337_04F/GpL16-k0 (antibody, human IgG1, kappa)
heavy: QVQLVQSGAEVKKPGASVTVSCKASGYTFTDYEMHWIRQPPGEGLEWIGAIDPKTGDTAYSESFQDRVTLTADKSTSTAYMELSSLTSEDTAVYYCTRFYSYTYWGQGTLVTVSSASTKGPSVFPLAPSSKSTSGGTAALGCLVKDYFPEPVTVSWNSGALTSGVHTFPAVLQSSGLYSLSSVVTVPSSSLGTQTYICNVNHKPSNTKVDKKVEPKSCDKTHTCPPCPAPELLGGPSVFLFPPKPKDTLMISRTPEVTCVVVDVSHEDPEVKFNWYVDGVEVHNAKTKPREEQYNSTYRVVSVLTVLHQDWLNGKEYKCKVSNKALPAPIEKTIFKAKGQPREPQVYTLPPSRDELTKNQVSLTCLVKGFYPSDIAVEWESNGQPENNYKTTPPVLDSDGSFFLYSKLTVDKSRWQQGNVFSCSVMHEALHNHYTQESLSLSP
light: B1 light
notes: as for B1
B16: GpH7-B3 variant S337_06M/GpL16-k0 (antibody, human IgG1, kappa)
heavy: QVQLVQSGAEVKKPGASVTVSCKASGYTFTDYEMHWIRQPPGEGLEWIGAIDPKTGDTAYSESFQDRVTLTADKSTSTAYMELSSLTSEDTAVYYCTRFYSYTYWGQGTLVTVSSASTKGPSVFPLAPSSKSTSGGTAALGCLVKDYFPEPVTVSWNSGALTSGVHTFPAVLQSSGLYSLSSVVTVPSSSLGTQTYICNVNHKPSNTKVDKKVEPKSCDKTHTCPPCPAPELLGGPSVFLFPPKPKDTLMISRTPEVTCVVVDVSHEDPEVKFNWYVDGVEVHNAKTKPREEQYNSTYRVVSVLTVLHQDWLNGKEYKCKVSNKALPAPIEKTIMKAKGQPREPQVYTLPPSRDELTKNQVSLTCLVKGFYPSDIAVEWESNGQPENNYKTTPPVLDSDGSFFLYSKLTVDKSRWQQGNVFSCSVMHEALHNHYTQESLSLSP
light: B1 light
notes: as for B1
B17: GpH7-B3 variant S337_07I/GpL16-k0 (antibody, human IgG1, kappa)
heavy: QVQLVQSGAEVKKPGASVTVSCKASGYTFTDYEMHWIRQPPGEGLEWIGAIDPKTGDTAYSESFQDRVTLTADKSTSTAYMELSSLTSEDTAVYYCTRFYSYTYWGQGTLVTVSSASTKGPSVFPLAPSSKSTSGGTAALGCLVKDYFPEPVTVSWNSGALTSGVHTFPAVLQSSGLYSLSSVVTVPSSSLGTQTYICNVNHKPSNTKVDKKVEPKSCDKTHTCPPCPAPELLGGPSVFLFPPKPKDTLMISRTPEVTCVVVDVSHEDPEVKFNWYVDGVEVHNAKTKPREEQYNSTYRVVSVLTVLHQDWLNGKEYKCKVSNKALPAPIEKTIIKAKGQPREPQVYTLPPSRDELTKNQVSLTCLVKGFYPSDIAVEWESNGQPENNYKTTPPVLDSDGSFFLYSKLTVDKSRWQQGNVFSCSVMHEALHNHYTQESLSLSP
light: B1 light
notes: as for B1
B18: GpH7-B3 variant S337_08L/GpL16-k0 (antibody, human IgG1, kappa)
heavy: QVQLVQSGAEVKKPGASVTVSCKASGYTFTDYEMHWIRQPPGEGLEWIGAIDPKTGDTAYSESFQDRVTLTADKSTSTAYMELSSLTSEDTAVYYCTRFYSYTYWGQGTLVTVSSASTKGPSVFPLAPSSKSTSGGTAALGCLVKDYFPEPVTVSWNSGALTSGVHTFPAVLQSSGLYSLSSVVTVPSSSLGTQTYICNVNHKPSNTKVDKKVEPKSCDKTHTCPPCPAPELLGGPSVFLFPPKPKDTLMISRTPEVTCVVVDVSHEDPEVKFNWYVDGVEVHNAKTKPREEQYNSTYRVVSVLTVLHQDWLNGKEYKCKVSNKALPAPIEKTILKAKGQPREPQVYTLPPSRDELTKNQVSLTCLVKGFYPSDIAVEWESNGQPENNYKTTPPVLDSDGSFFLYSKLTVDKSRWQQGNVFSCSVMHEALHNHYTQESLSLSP
light: B1 light
notes: as for B1
B19: GpH7-B3 variant S337_09D/GpL16-k0 (antibody, human IgG1, kappa)
heavy: not shown
light: B1 light
notes: as for B1
B20: GpH7-B3 variant S337_10E/GpL16-k0 (antibody, human IgG1, kappa)
heavy: not shown
light: B1 light
notes: as for B1
B21: GpH7-B3 variant S337_15Y/GpL16-k0 (antibody, human IgG1, kappa)
heavy: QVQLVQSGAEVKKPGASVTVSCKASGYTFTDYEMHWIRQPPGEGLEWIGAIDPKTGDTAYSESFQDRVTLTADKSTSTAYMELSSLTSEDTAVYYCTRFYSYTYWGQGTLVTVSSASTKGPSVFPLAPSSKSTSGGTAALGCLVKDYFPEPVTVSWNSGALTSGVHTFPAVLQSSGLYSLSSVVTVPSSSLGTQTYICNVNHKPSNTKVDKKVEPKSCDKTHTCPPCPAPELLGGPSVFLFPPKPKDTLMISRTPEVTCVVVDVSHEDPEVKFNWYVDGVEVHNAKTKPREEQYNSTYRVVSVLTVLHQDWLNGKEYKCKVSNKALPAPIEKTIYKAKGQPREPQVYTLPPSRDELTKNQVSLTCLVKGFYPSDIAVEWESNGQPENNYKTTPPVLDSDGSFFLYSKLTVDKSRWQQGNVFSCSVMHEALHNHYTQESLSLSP
light: B1 light
notes: as for B1
B22: GpH7-B3 variant S337_19Q/GpL16-k0 (antibody, human IgG1, kappa)
heavy: not shown
light: B1 light
notes: as for B1
B23: GpH7-B3 variant S337_20W/GpL16-k0 (antibody, human IgG1, kappa)
heavy: not shown
light: B1 light
notes: as for B1

Each binder was assayed against T1, FcγRIa (human, UniProt P12314 16-292) (assay: SPR (Biacore), captured antibody, FcγRIa analyte; relative to GpH7-B3/GpL16-k0).
T1 construct: extracellular domain; soluble His-tagged extracellular domain expressed in FreeStyle293 cells, used as analyte in Biacore; also called FcgRI; CD64
T1 sequence (P12314 16-292): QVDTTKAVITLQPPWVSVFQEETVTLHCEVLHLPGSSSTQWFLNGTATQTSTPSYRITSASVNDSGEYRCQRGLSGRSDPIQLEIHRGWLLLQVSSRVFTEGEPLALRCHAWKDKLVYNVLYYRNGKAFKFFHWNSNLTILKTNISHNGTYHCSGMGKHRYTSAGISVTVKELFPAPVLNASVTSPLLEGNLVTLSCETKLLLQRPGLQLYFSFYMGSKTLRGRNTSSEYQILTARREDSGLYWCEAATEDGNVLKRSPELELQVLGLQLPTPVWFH

Going from B1 to B2, the Ho/Con_1a rises from 106 relative, control = 100 to 108 relative, control = 100.

Compared with B3, B4 is higher in Ho/Con_1a: 103 relative, control = 100 for the first, 108 relative, control = 100 for the second.

Going from B5 to B6, the Ho/Con_1a rises from 110 relative, control = 100 to 112 relative, control = 100.

First: B7
Second: B8
The Ho/Con_1a of the first is higher: 110 relative, control = 100 for the first, 108 relative, control = 100 for the second.

Going from B9 to B10, the Ho/Con_1a falls from 109 relative, control = 100 to 108 relative, control = 100.

Going from B11 to B12, the Ho/Con_1a rises from 107 relative, control = 100 to 109 relative, control = 100.

Compared with B13, B14 is higher in Ho/Con_1a: 110 relative, control = 100 for the first, 111 relative, control = 100 for the second.

Compared with B15, B16 is lower in Ho/Con_1a: 105 relative, control = 100 for the first, 102 relative, control = 100 for the second.

B17 and B18 are the same in Ho/Con_1a: 105 relative, control = 100 for the first, 105 relative, control = 100 for the second.

First: B19
Second: B20
The Ho/Con_1a of the first is higher: 106 relative, control = 100 for the first, 104 relative, control = 100 for the second.

First: B21
Second: B22
The Ho/Con_1a of the first is lower: 104 relative, control = 100 for the first, 105 relative, control = 100 for the second.

With B23 the Ho/Con_1a was 104 relative, control = 100.
